Among the data in patent US20230053258A1 (RAMOT AT TEL AVIV UNIVERSITY, published 2023) are EC50 values, retold here.

The target in the assay is T1, recombinant human wild type insulin degrading enzyme (WT rhIDE) (human, UniProt P14735 42-1019).
T1 construct: also called WT IDE; active IDE
Description: ELISA on coated WT rhIDE. Background: An ELISA detects its analyte on a solid surface through an enzyme-linked reagent.

By EC50 is commonly meant the concentration needed to bring the measured effect to its halfway point.

Description: Following 3 washes with PBST, 3,3′,5,5′-tetramethylbenzidine (TMB; eBioscience, San Diego, Calif., USA) was added until color appeared. The reaction was stopped by adding 1 M H₂SO₄, and analyzed using a Spectrafluor plus microplate reader at 450 nm.

B1: B1 Inclonal IgG (human IgG1) (antibody, V domains shown)
VH: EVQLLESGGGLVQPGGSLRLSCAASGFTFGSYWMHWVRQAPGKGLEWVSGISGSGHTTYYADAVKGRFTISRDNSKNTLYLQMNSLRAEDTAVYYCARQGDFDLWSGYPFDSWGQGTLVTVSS
VL: DIVLTQSPGTLSLSPGERATLSCRASQSVSSHLAWYQQKPGQAPRLLIYDASNRATGIPDRFSGSGSGTDFTLTISRLEPEDFAVYYCQQYDSYPYTFGQGTKLDIK
notes: also called B1 IgG
B1: the EC50 was around 1 nM.

B2: A9 Inclonal IgG (human IgG1) (antibody, V domains shown)
VH: EVQLLESGGGLVQPGGSLRLSCAASGFTFRSYGMHWVRQAPGRGLEWVSAINSNGDSTYYPDTVKDRFTISRDNSKNTLYLQMNSLRAEDTAVYYCARADYYDSTGYYYHGLDLWGQGTLVTVSS
VL: DIVLTQPPSASGTPGQRVTISCSGSRDNIGKNYVSWYQQLPGTAPKLLIYRNNQRPSGVPDRFSGSKSGTSASLAISGLRSEDEADYYCSSYAGSSVIFGGGTKVTVL
notes: also called A9 IgG; IgG A9
For B2, the EC50 is around 1 nM.
